Where a chain is given by its changes, count along the chain named.
Assays:
[1] = biological target: T1, recombinant human sc-uPA (human, UniProt P00749 21-431); test: cell-based or functional assay
[2] = biological target: recombinant human tc-uPA (R&D Systems, #1310-SE) (human, UniProt P00749 21-178; P00749 179-431); test: cell-based or functional assay
[3] = biological target: T1, recombinant human sc-uPA; test: SPR (Biacore T200), mAb immobilised, sc-uPA as analyte
Procedure: (§1) Affinities of the anti-uPA mAbs towards human and cynomolgus sc-uPA (SEQ ID NO: 1 and 3) were measured by SPR using a Biacore T200 instrument (GE Healthcare). These studies were performed using a direct binding procedure. […] Injection time was 60 sec., followed by 180 sec. dissociation. Regeneration was performed by injection of two short pulses of glycine-HCl pH 1.5.
(§2) The kinetic parameters (kₐ, kd and KD) for the interaction were calculated using a 1:1 interaction Langmuir fitting model.
(§3) Results are shown in Table 2 Association rate constant (ka) and Dissociation rate constant (kd) were measured. Equilibrium dissociation constant is calculated as KD=kd/ka.

[4] = biological target: T2, recombinant cynomolgus sc-uPA (cynomolgus monkey, UniProt P16227 29-433 (Papio cynocephalus entry)); test: as above
T2 construct: The exact signal peptide is said not to be established; also called cyno pro-uPA; cyno pro-uPA-6xHis
Procedure: as §1, §2, §3

[5] = biological target: T1, recombinant human sc-uPA; test: cell-based or functional assay; remark: listed apart in the source
[6] = biological target: T2, recombinant cynomolgus sc-uPA; test: cell-based or functional assay
[7] = biological target: T1, recombinant human sc-uPA; test: SPR (Biacore), mAb immobilised, sc-uPA as analyte, 25 C
Procedure: (§4) In order to compare with murine mAb, the binding profile to recombinant human sc-uPA protein (SEQ ID NO: 1) and cynomolgus sc-uPA (SEQ ID NO: 3) was measured by surface plasmon resonance (SPR).
(§5) The experiments were performed on a Biacore™ instrument (GE Healthcare) and analysed with the BIAcore 4000 Evaluation Software. […] Recombinant human sc-uPA and cynomolgus sc-uPA proteins were diluted in HBS-N (GE Healthcare Cat BR-1006-70) with 1% BSA buffer with a dilution factor 3× ranging 1000-0.13 nM. Recombinant human sc-uPA and cynomolgus sc-uPA proteins were injected for 60 s, followed by a 600 s dissociation phase. Binding curves were measured at 25° C. with a flow rate of 30 μL/min. Regeneration of the chip surface was performed with pH1.5 Glycine for 25 s at 30 μl/min. Determination of the kinetic parameters was performed by fitting with a 1:1 binding model. Kinetic parameters were calculated and are stated in Table 14 below.

[8] = biological target: T2, recombinant cynomolgus sc-uPA; test: as above
Procedure: as §4, §5

[9] = biological target: T1, recombinant human sc-uPA; test: SPR, mAb immobilised
Procedure: The binding affinity to recombinant human sc-uPA protein (SEQ ID […]) was measured by surface plasmon resonance (SPR).
The experiments were performed on a Biacore™ instrument (GE Healthcare) and analysed with the BIAcore 4000 Evaluation Software. Anti-human uPA mAb variants were directly immobilized at 150-600 RU on flow cells of a CM5 sensor chip (GE Healthcare; cat. # BR-1000-12) via amine coupling, respectively. Recombinant human sc-uPA was diluted in HBS-N (GE Healthcare Cat BR-1006-70) with 1% BSA buffer with a dilution factor 3× ranging 1000-0.13 nM. Recombinant human sc-uPA was injected for 60 s, followed by a 600 s dissociation phase. Binding curves were measured at 25° C. with a flow rate of 30 μL/min. Regeneration of the chip surface was performed with pH1.5 Glycine for 25 s at 30 μl/min. Determination of the kinetic parameters was performed by fitting with a 1:1 binding model. Binding affinities were calculated and are stated in Table 20 below.

[10] = biological target: T1, recombinant human sc-uPA; test: SPR, mAb immobilised; remark: listed apart in the source
Method in brief: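 Anti-uPA mAb variants amine-coupled to CM5 chip at 150-600 RU; sc-uPA injected 60 s at 1000-0.13 nM (3-fold) in HBS-N with 1% BSA, 600 s dissociation, 25 °C, 30 μL/min. Kinetics fitted by 1:1 binding model; glycine pH1.5 regeneration.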

[11] = biological target: endogenously derived human uPA (primary human M1/M2 macrophages; human neutrophil granulocytes) (human, UniProt P00749 21-431); test: cell-based or functional assay

B1: 0266-0000-0010 (antibody, IgG1, V domains shown)
VH: DVKLVESGGGLVKPGGSLKLSCVASGFTFSSYTMSWVRQTPEKRLEWVATISGGGSHIYYADSVKGRFTISRDNAKNTLYLQMSSLKSEDTAIYYCTRDGRDGSWFAYWGQGTLVTVSA
VL: DIVMTQSPATLSVTPGDRVSLSCRTSQSIGDYLHWYQQKSHESPRLLIKYVSQSISGIPSRFSGSGSGSDFTLSINSVESEDVGVYYCQNSHSFPLTFGSGTKLELK
In the case of B1, the “IC50, coupled zymogen activation assay (Ex. 5)” value [1] is reported as < 0.7 nM, the “IC50, sc-uPA activation assay (Ex. 8)” value [1] is reported as 5 nM and the “IC50, tc-uPA catalytic assay (Ex. 7)” value [2] is reported as 113 nM. For the same binder, the Kd [3] was 1.02 nM, the koff [3] was 0.000345 s⁻¹ and the kon [3] was 340000 M⁻¹ s⁻¹. The Kd [4] was 0.121 nM, the koff [4] was 5.74e-05 s⁻¹ and the kon [4] was 473000 M⁻¹ s⁻¹. The “IC50, coupled zymogen activation assay, sc-uPA immobilized on uPAR of U937 cells” value (“IC50 … of U937 cells” below) [5] was < 0.7 nM and the “IC50, coupled zymogen activation assay with cynomolgus sc-uPA” value [6] was 0.9 nM.

B2: rec0266-0000-0010 (antibody, mouse IgG1, V domains shown)
VH: B1 VH
VL: DIVMTQSPATLSVTPGDRVSLSCRTSQSIGDYLHWYQQKSHESPRLLIKYVSQSISGIPSRFSGSGSGSDFTLSINSVESEDVGVYYCQNSHSFPLTFGSGTKLELKR
notes: also called mAb rec0266-0000-0010
Binder B2 has a Kd [7] of 0.944 nM, a koff [7] of 0.00053 s⁻¹ and a kon [7] of 561000 M⁻¹ s⁻¹. For the same binder, the Kd [8] was 0.0526 nM, the koff [8] was 0.000104 s⁻¹ and the kon [8] was 1.98e+06 M⁻¹ s⁻¹. It also gave a Kd [9] of 0.47 nM and a Kd [10] of 0.47 nM.

B3: rec0266-0000-0010-VL_S91V (antibody, mouse IgG1, name in Kabat numbering, V domains shown)
VH: B1 VH
VL: B2 VL with S91V
Binder B3 has a Kd [9] of 12 nM.

B4: rec0266-0000-0010-VL_S91F (antibody, mouse IgG1, name in Kabat numbering, V domains shown)
VH: B1 VH
VL: B2 VL with S91F
Work on B4 yielded a Kd [9] of 11 nM.

B5: rec0266-0000-0010-VL_S91T (antibody, mouse IgG1, name in Kabat numbering, V domains shown)
VH: B1 VH
VL: B2 VL with S91T
With B5 the Kd [9] was 0.88 nM.

B6: rec0266-0000-0010-VL_S91I (antibody, mouse IgG1, name in Kabat numbering, V domains shown)
VH: B1 VH
VL: B2 VL with S91I
Binder B6 has a Kd [9] of 2.9 nM.

B7: rec0266-0000-0010-VL_S91L (antibody, mouse IgG1, name in Kabat numbering, V domains shown)
VH: B1 VH
VL: B2 VL with S91L
B7 was tested, and the Kd [9] was 5.7 nM.

B8: rec0266-0000-0010-VL_S91Q (antibody, mouse IgG1, name in Kabat numbering, V domains shown)
VH: B1 VH
VL: B2 VL with S91Q
With B8 the Kd [9] was 2.2 nM.

B9: rec0266-0000-0010-VL_S91K (antibody, mouse IgG1, name in Kabat numbering, V domains shown)
VH: B1 VH
VL: B2 VL with S91K
Work on B9 yielded a Kd [9] of 3.2 nM.

B10: rec0266-0000-0010-VL_S91R (antibody, mouse IgG1, name in Kabat numbering, V domains shown)
VH: B1 VH
VL: B2 VL with S91R
B10 was tested, and the Kd [9] was 3.1 nM.

B11: rec0266-0000-0010-VL_S91H (antibody, mouse IgG1, name in Kabat numbering, V domains shown)
VH: B1 VH
VL: B2 VL with S91H
For B11, the Kd [9] was 5.3 nM.

B12: rec0266-0000-0010-VL_S91Y (antibody, mouse IgG1, name in Kabat numbering, V domains shown)
VH: B1 VH
VL: B2 VL with S91Y
B12 gave a Kd [9] of 3.6 nM.

B13: rec0266-0000-0010-VL_S91P (antibody, mouse IgG1, name in Kabat numbering, V domains shown)
VH: B1 VH
VL: B2 VL with S91P
With B13 the Kd [9] was 2 nM.

B14: 0266-0000-0015 (antibody, IgG1, V domains shown)
VH: QIQLVQSGPELKKPGETVRISCKASGYTFTDYGMNWIKQTPGKGLKWMGWINTYSGEPTYSDEFKGRFAFSLETSASTASLQINNLKNEDMATYFCARDFDDYDSSRYFDVWGAGTTVTVSS
VL: DIVMSQSPSSLGVSVGEKLTMTCKSSQSLLYSSYQKNFLAWYQQKPGQSPKLLISWASTRDSGVPDRFTGSGSGTDFTLTISSVKAEDLAVYYCQQYYIYPPTFGGGTKLEIK
notes: also called hybridoma m-uPA-1F58A1
With B14 the “IC50, coupled zymogen activation assay (Ex. 5)” value [1] was < 0.7 nM, the “IC50, sc-uPA activation assay (Ex. 8)” value [1] was 3 nM and the “IC50, tc-uPA catalytic assay (Ex. 7)” value [2] was 100 nM. It also gave a Kd [3] of 0.37 nM, a koff [3] of 0.000381 s⁻¹ and a kon [3] of 1.03e+06 M⁻¹ s⁻¹. It also gave a Kd [4] of 5.32 nM, a koff [4] of 0.00717 s⁻¹ and a kon [4] of 1.35e+06 M⁻¹ s⁻¹. The “IC50 … of U937 cells” value [5] was < 0.7 nM.

B15: 0266-0000-0043 (antibody, human IgG4 S228P, kappa, V domains shown)
VH: DVKLVESGGGLVKPGGSLRLSCAASGFTFSSYTMSWVRQAPGKGLEWVATISGGGSHIYYADSVKGRFTISRDNAKNSLYLQMNSLRAEDTAVYYCTRDGRDGSWFAYWGQGTLVTVSS
VL: DIVMTQSPAFLSVTPGEKVTISCRTSQSIGDYLHWYQQKPDQSPKLLIKYVSQSISGIPSRFSGSGSGSDFTFTISSLEAEDAATYYCQNSHSFPLTFGGGTKVEIKR
notes: also called rec0266-0000-0043
With B15 the Kd [7] was 1.78 nM, the koff [7] was 0.0009 s⁻¹ and the kon [7] was 506000 M⁻¹ s⁻¹. The Kd [8] was 0.112 nM, the koff [8] was 0.000164 s⁻¹ and the kon [8] was 1.46e+06 M⁻¹ s⁻¹. For the same binder, the “IC50 … of U937 cells” value [5] was < 0.7 nM and the “IC50, plasmin generation by human M1/M2 macrophages” value [11] was 2.1 nM.
